Test results published in patent publication US20230312713A1.
Each block holds one substance with its values, some of them ahead of it.

Tests used:
[1] = target: mouse CD5 on murine T cells (mouse) (UniProt P13379); experiment: cell-based or functional assay
[2] = target: human CD5 on human ACH2 immortalized T cells (human) (UniProt P06127); experiment: cell-based or functional assay
UniProt P06127, sequence (P06127 25-495 limits assumed): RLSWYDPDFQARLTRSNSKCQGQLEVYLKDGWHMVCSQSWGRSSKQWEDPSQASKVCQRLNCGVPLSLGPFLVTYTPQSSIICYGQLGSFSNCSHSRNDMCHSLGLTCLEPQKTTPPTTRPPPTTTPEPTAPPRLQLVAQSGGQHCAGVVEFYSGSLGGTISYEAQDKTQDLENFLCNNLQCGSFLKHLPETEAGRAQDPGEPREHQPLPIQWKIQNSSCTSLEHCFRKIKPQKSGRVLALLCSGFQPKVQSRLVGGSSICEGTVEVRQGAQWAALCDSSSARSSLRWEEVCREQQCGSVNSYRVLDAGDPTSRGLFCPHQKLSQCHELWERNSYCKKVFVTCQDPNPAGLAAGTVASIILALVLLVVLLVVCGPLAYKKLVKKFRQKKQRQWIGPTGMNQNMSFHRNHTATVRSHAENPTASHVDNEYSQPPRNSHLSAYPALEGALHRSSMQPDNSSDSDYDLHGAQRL

UniProt P13379, sequence (P13379 24-494 limits assumed): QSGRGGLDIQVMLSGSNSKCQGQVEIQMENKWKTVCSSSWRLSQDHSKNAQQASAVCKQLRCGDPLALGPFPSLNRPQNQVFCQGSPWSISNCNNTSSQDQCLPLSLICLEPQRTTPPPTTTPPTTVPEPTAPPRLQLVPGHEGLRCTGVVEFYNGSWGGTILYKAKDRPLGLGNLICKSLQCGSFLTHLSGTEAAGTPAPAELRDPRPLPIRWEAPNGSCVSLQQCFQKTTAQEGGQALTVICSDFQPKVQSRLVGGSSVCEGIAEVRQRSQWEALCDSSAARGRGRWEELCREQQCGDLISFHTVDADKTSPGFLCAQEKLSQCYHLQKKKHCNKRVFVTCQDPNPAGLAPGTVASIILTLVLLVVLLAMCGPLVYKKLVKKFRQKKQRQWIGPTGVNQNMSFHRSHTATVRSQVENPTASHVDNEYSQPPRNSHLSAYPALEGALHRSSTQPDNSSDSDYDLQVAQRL

ZsGreen expression in CD4+ splenocytes of Ai6 mice 24 h after 30 ug CD5/LNP-Cre [1]: 81.1%
ZsGreen expression in CD8+ splenocytes of Ai6 mice 24 h after 30 ug CD5/LNP-Cre [1]: 75.6%
percent FAPCAR T cells in spleen 48 h after CD5/LNP-FAPCAR injection [1]: 17.5 to 24.7%
percent of murine T cells expressing FAPCAR after 48 h in vitro with CD5/LNP-FAPCAR (flow cytometry) [1]: 83%
percent of murine T cells expressing GFP after 48 h in vitro with CD5/LNP-GFP (flow cytometry) [1]: 78%
Substance: purified rat anti-mouse CD5, clone 53-7.3 (BioLegend), conjugated to LNP-mRNA (antibody)

percent of murine T cells receiving mRNA in vitro from IgG/LNP (flow cytometry) [1]: 7%
Substance: control isotype matched IgG conjugated to LNP-mRNA (antibody)

Substance: mouse anti-human CD5, clone UCHT2 (BioLegend), conjugated to LNP-mRNA (antibody)
percent gene transfer (GFP) in human ACH2 T cells with CD5/LNP-GFP in vitro [2]: 89 to 93%
